# Test results as given in PMC3392113 (Human Molecular Genetics, 2012).
# Molecular target: the molecule itself
# Test: SDS-PAGE
protein,measurement,value
"MBP-ΔN597 (human DISC1 amino acids 326-597 fused to maltose-binding protein) (domain or fragment, UniProt Q9NRI5 326-597, looked up) WDTLLRKWEPVLRDCLLRNRRQMEVISLRLKLQKLQEDAVENDDYDKAETLQQRLEDLEQEKISLHFQLPSRQPALSSFLGHLAAQVQAALRRGATQQASGDDTHTPLRMEPRLLEPTAQDSLHVSITRRDWLLQEKQQLQKEIEALQARMFVLEAKDQQLRREIEEQEQQLQWQGCDLTPLVGQLSLGQLQEVSKALQDTLASAGQIPFHAEPPETIRSLQERIKSLNLSLKEITTKVCMSEKFCSTLRKKVNDIETQLPALLEAKMHAIS",stoichiometry N,2
